T1: soluble mouse FcγRII, His-tagged (mouse, UniProt P08101 30-210, limits assumed)
T1 construct: Captured on the chip through an anti-His antibody
T1 sequence (looked up): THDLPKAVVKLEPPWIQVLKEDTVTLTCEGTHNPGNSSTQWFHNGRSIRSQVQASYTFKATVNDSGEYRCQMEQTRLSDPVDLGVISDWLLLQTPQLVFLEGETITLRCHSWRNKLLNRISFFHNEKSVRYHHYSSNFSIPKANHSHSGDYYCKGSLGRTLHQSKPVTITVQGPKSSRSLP

T2: human FcγRIIb constitutively expressed on MDCK cells (human, UniProt P31994 43-310)
T2 sequence (looked up): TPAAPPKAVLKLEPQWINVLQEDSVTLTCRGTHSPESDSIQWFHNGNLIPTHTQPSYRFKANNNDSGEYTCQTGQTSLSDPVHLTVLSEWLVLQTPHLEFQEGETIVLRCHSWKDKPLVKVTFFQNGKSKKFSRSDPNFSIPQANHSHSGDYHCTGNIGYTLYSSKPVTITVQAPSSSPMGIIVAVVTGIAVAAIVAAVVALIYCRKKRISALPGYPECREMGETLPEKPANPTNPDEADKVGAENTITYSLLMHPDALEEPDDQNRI


Columns and labels:
[1] = target: T1, soluble mouse FcγRII, His-tagged; assay: SPR, mouse FcγRII captured via His-tag, antigen-antibody complex injected, pH 7.4, 25 C
Description: Regarding the produced Fc region variant-containing antibodies, binding assays between soluble mouse FcγRII and antigen-antibody complexes were performed using BIACORE® T200 (GE Healthcare). Soluble mouse FcγRII was produced in the form of a His-tagged molecule by a method known to those skilled in the art. An appropriate amount of an anti-His antibody was fixed onto Sensor chip CM5 (GE Healthcare) by the amine coupling method using a His capture kit (GE Healthcare) to capture mouse FcγRII. Next, an antibody-antigen complex and a running buffer (as a reference solution) were injected, and interaction was allowed to take place with the mouse FcγRII captured onto the sensor chip. 20 mM N-(2-Acetamido)-2-aminoethanesulfonic acid, 150 mM NaCl, 1.2 mM CaCl₂), and 0.05% (w/v) TWEEN® 20 at pH7.4 was used as the running buffer, and the respective buffer was also used to dilute the soluble mouse FcγRII. To regenerate the sensor chip, 10 mM glycine-HCl at pH1.5 was used. All measurements were carried out at 25° C. […] To calculate the parameters, the BIACORE® T100 Evaluation Software (GE Healthcare) was used.

[2] = target: T2, human FcγRIIb constitutively expressed …; assay: cell-based or functional assay

Row | biacore IC binding (relative, SG1 = 1.00) [1] | celluar uptake (labelled human latent myostatin taken up as antigen-antibody complex) [2] | Binder
1 | 1.21 relative to SG1 | 3.43 relative to SG1 = 1.00 | MS1032LO06-P1375m (antibody, human IgG1, kappa, name in EU numbering, also called M103205H795-P1375m; copies: 2 + 2) heavy: not shown light: DIVMTQSPATLSLSPGERATLSCTSSQSVYHANWLSWFQQKPGQPPKLLIYWASTLAYGVPSRFSGSGSGTDFTLTISSLQPEDAATYYCAGGYGGGRYAFGQGTKVEIKRTVAAPSVFIFPPSDEQLKSGTASVVCLLNNFYPREAKVQWKVDNALQSGNSQESVTEQDSKDSTYSLSSTLTLSKADYEKHKVYACEVTHQGLSSPVTKSFNRGEC
2 | 1.46 relative to SG1 | 1.23 relative to SG1 = 1.00 | M103205H795-P1487m/M103202L889-SK1 (antibody, human IgG1, kappa, name in EU numbering, copies: 2 + 2) heavy: not shown light: DIVMTQSPATLSLSPGERATLSCTSSQSVYHANWLSWFQQKPGQPPKLLIYWASTLAYGVPSRFSGSGSGTDFTLTISSLQPEDAATYYCAGGYGGGRYAFGQGTKVEIKRTVAAPSVFIFPPSDEQLKSGTASVVCLLNNFYPREAKVQWKVDNALQSGNSQESVTEQDSKDSTYSLSSTLTLSKADYEKHKVYACEVTHQGLSSPVTKSFNRGEC
3 | 1.24 relative to SG1 | 1.68 relative to SG1 = 1.00 | M103205H795-P1489m/M103202L889-SK1 (antibody, human IgG1, kappa, name in EU numbering, copies: 2 + 2) heavy: not shown light: DIVMTQSPATLSLSPGERATLSCTSSQSVYHANWLSWFQQKPGQPPKLLIYWASTLAYGVPSRFSGSGSGTDFTLTISSLQPEDAATYYCAGGYGGGRYAFGQGTKVEIKRTVAAPSVFIFPPSDEQLKSGTASVVCLLNNFYPREAKVQWKVDNALQSGNSQESVTEQDSKDSTYSLSSTLTLSKADYEKHKVYACEVTHQGLSSPVTKSFNRGEC
4 | 1.28 relative to SG1 | 1.33 relative to SG1 = 1.00 | M103205H795-P1490m/M103202L889-SK1 (antibody, human IgG1, kappa, name in EU numbering, copies: 2 + 2) heavy: not shown light: DIVMTQSPATLSLSPGERATLSCTSSQSVYHANWLSWFQQKPGQPPKLLIYWASTLAYGVPSRFSGSGSGTDFTLTISSLQPEDAATYYCAGGYGGGRYAFGQGTKVEIKRTVAAPSVFIFPPSDEQLKSGTASVVCLLNNFYPREAKVQWKVDNALQSGNSQESVTEQDSKDSTYSLSSTLTLSKADYEKHKVYACEVTHQGLSSPVTKSFNRGEC
5 | 1.29 relative to SG1 | 1.88 relative to SG1 = 1.00 | M103205H795-P1485m/M103202L889-SK1 (antibody, human IgG1, kappa, name in EU numbering, copies: 2 + 2) heavy: not shown light: DIVMTQSPATLSLSPGERATLSCTSSQSVYHANWLSWFQQKPGQPPKLLIYWASTLAYGVPSRFSGSGSGTDFTLTISSLQPEDAATYYCAGGYGGGRYAFGQGTKVEIKRTVAAPSVFIFPPSDEQLKSGTASVVCLLNNFYPREAKVQWKVDNALQSGNSQESVTEQDSKDSTYSLSSTLTLSKADYEKHKVYACEVTHQGLSSPVTKSFNRGEC
6 | 1.33 relative to SG1 | 0 relative to SG1 = 1.00 | M103205H795-P1484m/M103202L889-SK1 (antibody, human IgG1, kappa, name in EU numbering, copies: 2 + 2) heavy: not shown light: DIVMTQSPATLSLSPGERATLSCTSSQSVYHANWLSWFQQKPGQPPKLLIYWASTLAYGVPSRFSGSGSGTDFTLTISSLQPEDAATYYCAGGYGGGRYAFGQGTKVEIKRTVAAPSVFIFPPSDEQLKSGTASVVCLLNNFYPREAKVQWKVDNALQSGNSQESVTEQDSKDSTYSLSSTLTLSKADYEKHKVYACEVTHQGLSSPVTKSFNRGEC
7 | 1.43 relative to SG1 | 1.45 relative to SG1 = 1.00 | M103205H795-P1488m/M103202L889-SK1 (antibody, human IgG1, kappa, name in EU numbering, copies: 2 + 2) heavy: not shown light: DIVMTQSPATLSLSPGERATLSCTSSQSVYHANWLSWFQQKPGQPPKLLIYWASTLAYGVPSRFSGSGSGTDFTLTISSLQPEDAATYYCAGGYGGGRYAFGQGTKVEIKRTVAAPSVFIFPPSDEQLKSGTASVVCLLNNFYPREAKVQWKVDNALQSGNSQESVTEQDSKDSTYSLSSTLTLSKADYEKHKVYACEVTHQGLSSPVTKSFNRGEC
8 | 1.2 relative to SG1 | 1.52 relative to SG1 = 1.00 | M103205H795-P1486m/M103202L889-SK1 (antibody, human IgG1, kappa, name in EU numbering, copies: 2 + 2) heavy: not shown light: DIVMTQSPATLSLSPGERATLSCTSSQSVYHANWLSWFQQKPGQPPKLLIYWASTLAYGVPSRFSGSGSGTDFTLTISSLQPEDAATYYCAGGYGGGRYAFGQGTKVEIKRTVAAPSVFIFPPSDEQLKSGTASVVCLLNNFYPREAKVQWKVDNALQSGNSQESVTEQDSKDSTYSLSSTLTLSKADYEKHKVYACEVTHQGLSSPVTKSFNRGEC

Source: patent US20250076311A1 (Chugai, published 2025)
